Measured values as given in patent US11802878B2, “Protein sequencing method and reagents” (The Governing Council of the University of Toronto, priority 2009, dated 2023).
“Also recorded” adds a separate entry of the source. Residues, ends and D or L forms follow the SMILES beside them.

How the values were obtained:
[1] = target: T1, ClpS variant W1 (Escherichia coli, UniProt P0A8Q6, L99A/M40A/M62C/P98A/V43C/V65A); assay: Competitive phage ELISA, non-biotinylated peptide competitors against immobilized Wpep; format: binding, E. coli; conditions: FIG. 13 legend; result in words
T1 construct: ST2 secretion signal (N, cleaved yes); made in house; host or cells: M13 phage display, amplified in E. coli XL1Blue with helper phage M13K07
Description: Error bars represent 95% confidence intervals (n=2).
Each phage pool was then briefly incubated in wells of a microtitre plate with Wpep ([sequence](biotin)) immobilized on neutravidin. Non-binding phage were washed away, and retained phage were detected using an enzymatically-labeled antibody against the filamentous phage particle and an appropriate colorimetric substrate. The value for W1 binding to neutravidin alone was subtracted from the binding signal from every well to correct for non-specific binding. The ELISA values were then expressed as proportions, relative to the maximum ELISA signal in absence of competitor. Error bars represent 95% confidence intervals (n=2).

[2] = tested on: immobilized biotinylated peptide, N-terminal amino acid A (X-SDGMFTAGSLIGK(biotin)); assay: Phage ELISA, binding to immobilized peptide, N-terminal A; conditions: N-terminal A; phage 1X; sub Fab
Description: (§1) Given the discovery that the specificity pocket library was functionally robust, selections against synthetic peptide ligands were carried out using this library. The specificity pocket library was selected against 20 biotinylated peptides, each with a different N-terminal residue atop a common leader sequence (X-SDGMFTAGSLIGK(biotin)) (SEQ ID NO: 4). The peptides were immobilized individually to the bottom wells of a microtiter plate. […] Consequently, ClpS mutant variants that prefer other residues in addition to the ligand ‘bait’ would bind those competing peptides in solution and simply be washed away. Only selective variants that bound to the immobilized target(s) were amplified during each subsequent round of selection.
(§2) To evaluate the specificity and selectivity of individual clones, both wild-type ClpS and the selected variants' binding to each of the biotinylated peptides independently were tested. The same approach was also used to monitor the progress of the selections and to prioritize particular pools of phage for further investigation.
(§3) Promising single clones were picked from the selection pools and their specificity was evaluated using the same panel of biotinylated peptides and various amounts of phage supernatant. […] Accordingly, Variant 1 represents a selective N-terminal amino acid capture probe for tryptophan useful for the sequencing methods described herein. Variant 1 also represents a useful scaffold for performing further generation and selection of variants with desirable properties for use as additional N-terminal amino acid capture probes.
(§4) The selection and ELISA protocols are very similar. Briefly, each well of a 96-well Maxisorp plate was coated overnight at 4° C. with 100 μl of 10 μg/ml neutravidin in PBS, or 1:500 dilution of anti-FLAG antibody. […]
(§5) For the ELISA readouts, 100 μl of pH adjusted phage supernatant or polyethylene glycol (PEG) precipitated concentrated phage was added to appropriate wells and allowed to bind for 1 hour at 4° C. […] The reaction was stopped by addition of 90 μl of 1M H3PO4 and the absorbance at A450 nm was read.

[3] = tested on: immobilized biotinylated peptide, N-terminal amino acid C (X-SDGMFTAGSLIGK(biotin)); assay: Phage ELISA, binding to immobilized peptide, N-terminal C; conditions: N-terminal C; phage 1X; sub Fab
Description: as §1, §2, §3, §4, §5

[4] = tested on: immobilized biotinylated peptide, N-terminal amino acid D (X-SDGMFTAGSLIGK(biotin)); assay: Phage ELISA, binding to immobilized peptide, N-terminal D; conditions: N-terminal D; phage 1X; sub Fab
Description: as §1, §2, §3, §4, §5

[5] = tested on: immobilized biotinylated peptide, N-terminal amino acid E (X-SDGMFTAGSLIGK(biotin)); assay: Phage ELISA, binding to immobilized peptide, N-terminal E; conditions: N-terminal E; phage 1X; sub Fab
Description: as §1, §2, §3, §4, §5

[6] = tested on: immobilized biotinylated peptide, N-terminal amino acid F (X-SDGMFTAGSLIGK(biotin)); assay: Phage ELISA, binding to immobilized peptide, N-terminal F; conditions: N-terminal F; phage 1X; sub Fab
Description: as §1, §2, §3, §4, §5

[7] = tested on: immobilized biotinylated peptide, N-terminal amino acid G (X-SDGMFTAGSLIGK(biotin)); assay: Phage ELISA, binding to immobilized peptide, N-terminal G; conditions: N-terminal G; phage 1X; sub Fab
Description: as §1, §2, §3, §4, §5

[8] = tested on: immobilized biotinylated peptide, N-terminal amino acid H (X-SDGMFTAGSLIGK(biotin)); assay: Phage ELISA, binding to immobilized peptide, N-terminal H; conditions: N-terminal H; phage 1X; sub Fab
Description: as §1, §2, §3, §4, §5

[9] = tested on: immobilized biotinylated peptide, N-terminal amino acid I (X-SDGMFTAGSLIGK(biotin)); assay: Phage ELISA, binding to immobilized peptide, N-terminal I; conditions: N-terminal I; phage 1X; sub Fab
Description: as §1, §2, §3, §4, §5

[10] = tested on: immobilized biotinylated peptide, N-terminal amino acid K (X-SDGMFTAGSLIGK(biotin)); assay: Phage ELISA, binding to immobilized peptide, N-terminal K; conditions: N-terminal K; phage 1X; sub Fab
Description: as §1, §2, §3, §4, §5

[11] = tested on: immobilized biotinylated peptide, N-terminal amino acid M (X-SDGMFTAGSLIGK(biotin)); assay: Phage ELISA, binding to immobilized peptide, N-terminal M; conditions: N-terminal M; phage 1X; sub Fab
Description: as §1, §2, §3, §4, §5

[12] = tested on: immobilized biotinylated peptide, N-terminal amino acid N (X-SDGMFTAGSLIGK(biotin)); assay: Phage ELISA, binding to immobilized peptide, N-terminal N; conditions: N-terminal N; phage 1X; sub Fab
Description: as §1, §2, §3, §4, §5

[13] = tested on: immobilized biotinylated peptide, N-terminal amino acid P (X-SDGMFTAGSLIGK(biotin)); assay: Phage ELISA, binding to immobilized peptide, N-terminal P; conditions: N-terminal P; phage 1X; sub Fab
Description: as §1, §2, §3, §4, §5

[14] = tested on: immobilized biotinylated peptide, N-terminal amino acid Q (X-SDGMFTAGSLIGK(biotin)); assay: Phage ELISA, binding to immobilized peptide, N-terminal Q; conditions: N-terminal Q; phage 1X; sub Fab
Description: as §1, §2, §3, §4, §5

[15] = tested on: immobilized biotinylated peptide, N-terminal amino acid R (X-SDGMFTAGSLIGK(biotin)); assay: Phage ELISA, binding to immobilized peptide, N-terminal R; conditions: N-terminal R; phage 1X; sub Fab
Description: as §1, §2, §3, §4, §5

[16] = tested on: immobilized biotinylated peptide, N-terminal amino acid S (X-SDGMFTAGSLIGK(biotin)); assay: Phage ELISA, binding to immobilized peptide, N-terminal S; conditions: N-terminal S; phage 1X; sub Fab
Description: as §1, §2, §3, §4, §5

[17] = tested on: immobilized biotinylated peptide, N-terminal amino acid T (X-SDGMFTAGSLIGK(biotin)); assay: Phage ELISA, binding to immobilized peptide, N-terminal T; conditions: N-terminal T; phage 1X; sub Fab
Description: as §1, §2, §3, §4, §5

[18] = tested on: immobilized biotinylated peptide, N-terminal amino acid V (X-SDGMFTAGSLIGK(biotin)); assay: Phage ELISA, binding to immobilized peptide, N-terminal V; conditions: N-terminal V; phage 1X; sub Fab
Description: as §1, §2, §3, §4, §5

[19] = tested on: immobilized biotinylated peptide, N-terminal amino acid W (X-SDGMFTAGSLIGK(biotin)); assay: Phage ELISA, binding to immobilized peptide, N-terminal W; conditions: N-terminal W; phage 1X; sub Fab
Description: as §1, §2, §3, §4, §5

[20] = tested on: immobilized biotinylated peptide, N-terminal amino acid Y (X-SDGMFTAGSLIGK(biotin)); assay: Phage ELISA, binding to immobilized peptide, N-terminal Y; conditions: N-terminal Y; phage 1X; sub Fab
Description: as §1, §2, §3, §4, §5

[21] = tested on: immobilized biotinylated peptide, N-terminal amino acid L (X-SDGMFTAGSLIGK(biotin)); assay: Phage ELISA, binding to immobilized peptide, N-terminal L; conditions: N-terminal L; phage 1X; sub Fab
Description: as §1, §2, §3, §4, §5

[22] = tested on: panel of 20 biotinylated peptides, each with a different N-terminal residue (X-SDGMFTAGSLIGK(biotin)); assay: Phage ELISA specificity profile over the panel of biotinylated peptides; format: binding; conditions: phage displayed; result in words; listed as ClpS Variant 1
Description: as §1
To evaluate the specificity and selectivity of individual clones, both wild-type ClpS and the selected variants' binding to each of the biotinylated peptides independently were tested. […]
Promising single clones were picked from the selection pools and their specificity was evaluated using the same panel of biotinylated peptides and various amounts of phage supernatant. […]
as §5

## CC[C@H](C)[C@H](NC(=O)[C@H](CC(C)C)NC(=O)[C@H](CO)NC(=O)CNC(=O)[C@H](C)NC(=O)[C@@H](NC(=O)[C@H](Cc1ccccc1)NC(=O)[C@H](CCSC)NC(=O)CNC(=O)[C@H](CC(=O)O)NC(=O)[C@H](CO)NC(=O)[C@@H](N)Cc1c[nH]c2ccccc12)[C@@H](C)O)C(=O)O [Wpep] (H-WSDGMFTAGSLI-OH; N-terminus and C-terminus assumed)
[1]
  effective competitor for binding ClpS Variant 1: effective competitor

B1: Variant 1: engineered ClpS variant, SEQ ID NO: 2, binds N-terminal tryptophan selectively (protein)
chain: KPPSMYKVILVNDDYTPAEFCIDVLQKFFSYDVERATQLCLAAHYQGKAICGVFTAEVAETKVAMVNKYARENEHAALCTLEKA
[2]
  phage ELISA binding signal: 0.018
[3]
  phage ELISA binding signal: 0.066
[4]
  phage ELISA binding signal: −0.017
[5]
  phage ELISA binding signal: 0.032
[6]
  phage ELISA binding signal: 0.083
[7]
  phage ELISA binding signal: 0.028
[8]
  phage ELISA binding signal: −0.001
[9]
  phage ELISA binding signal: −0.023
[10]
  phage ELISA binding signal: 0.129
[11]
  phage ELISA binding signal: −0.003
[12]
  phage ELISA binding signal: 0.052
[13]
  phage ELISA binding signal: 0.062
[14]
  phage ELISA binding signal: 0.065
[15]
  phage ELISA binding signal: 0.04
[16]
  phage ELISA binding signal: −0.001
[17]
  phage ELISA binding signal: −0.005
[18]
  phage ELISA binding signal: 0.032
[19]
  phage ELISA binding signal: 2.636
[20]
  phage ELISA binding signal: 0.045
[21]
  phage ELISA binding signal: 0.069
[22]
  binding specificity / preference for N-terminal amino acids: selectively binds polypeptides with the N-terminal amino acid tryptophan; also recorded: bound specifically to tryptophan alone; also recorded: selectively binds tryptophan N-terminal amino acids
